Experimental data as given in patent US20240117018A1.

What was measured:
Experiment in all cases: cell-based or functional assay
[1] = target: HIV-1 Env of pseudovirus 231965.c01 (HIV-1)
[2] = target: HIV-1 Env of pseudovirus BJOX009000.02.4 (HIV-1)
[3] = target: HIV-1 Env of pseudovirus BJOX015000.11.5 (HIV-1)
[4] = target: HIV-1 Env of pseudovirus BJOX028000.10.3 (HIV-1)
[5] = target: HIV-1 Env of pseudovirus P1981_C5_3 (HIV-1)
[6] = target: HIV-1 Env of pseudovirus X1254_c3 (HIV-1)
[7] = target: HIV-1 Env of pseudovirus X1632_S2_B10 (HIV-1)
[8] = target: HIV-1 Env of pseudovirus T257-31 (HIV-1)

Substance	IC50 neutralization (TZM.bl) [1] [µg/mL]	IC80 neutralization (TZM.bl) [1] [µg/mL]	IC50 neutralization (TZM.bl) [2] [µg/mL]	IC80 neutralization (TZM.bl) [2] [µg/mL]	IC50 neutralization (TZM.bl) [3] [µg/mL]	IC80 neutralization (TZM.bl) [3] [µg/mL]	IC50 neutralization (TZM.bl) [4] [µg/mL]	IC80 neutralization (TZM.bl) [4] [µg/mL]	IC50 neutralization (TZM.bl) [5] [µg/mL]	IC80 neutralization (TZM.bl) [5] [µg/mL]	IC50 neutralization (TZM.bl) [6] [µg/mL]	IC80 neutralization (TZM.bl) [6] [µg/mL]	IC50 neutralization (TZM.bl) [7] [µg/mL]	IC80 neutralization (TZM.bl) [7] [µg/mL]	neutralization IC50 [1] [µg/mL]	neutralization IC80 [1] [µg/mL]	neutralization MPI [1]	neutralization IC50 [2] [µg/mL]	neutralization IC80 [2] [µg/mL]	neutralization MPI [2]	other results
PG9 (antibody)	1.28	48	1.73	8.21	0.322	1.49	1.1	21.5	0.258	2.51	0.065	0.304	0.107	0.934							
N49P9 (antibody)															0.253	1.16	100	0.727	3.29	100	neutralization IC50 [3]: 0.089 µg/mL; neutralization IC80 [3]: 0.375 µg/mL; neutralization MPI [3]: 100; neutralization IC50 [4]: 0.031 µg/mL; neutralization IC80 [4]: 0.134 µg/mL; neutralization MPI [4]: 100; neutralization IC50 [5]: 0.308 µg/mL; neutralization IC80 [5]: 0.701 µg/mL; neutralization MPI [5]: 100; neutralization IC50 [8]: 0.216 µg/mL; neutralization IC80 [8]: 0.821 µg/mL; neutralization MPI [8]: 100; neutralization IC50 [6]: 0.04 µg/mL; neutralization IC80 [6]: 0.104 µg/mL; neutralization MPI [6]: 100; neutralization IC50 [7]: 46.7 µg/mL; neutralization IC80 [7]: > 50 µg/mL; neutralization MPI [7]: 51
10E8 (antibody)	> 10	> 10	1.57	9.95	0.051	1.91	0.665	7.36	0.057	0.285	4.75	> 10	1.98	9.68							
N49P9.1 (antibody)															0.474	2.24	100	0.965	3.93	100	neutralization IC50 [3]: 0.068 µg/mL; neutralization IC80 [3]: 0.478 µg/mL; neutralization MPI [3]: 100; neutralization IC50 [4]: 0.04 µg/mL; neutralization IC80 [4]: 0.2 µg/mL; neutralization MPI [4]: 100; neutralization IC50 [5]: 0.469 µg/mL; neutralization IC80 [5]: 1.52 µg/mL; neutralization MPI [5]: 100; neutralization IC50 [8]: 0.508 µg/mL; neutralization IC80 [8]: 1.82 µg/mL; neutralization MPI [8]: 100; neutralization IC50 [6]: 0.101 µg/mL; neutralization IC80 [6]: 0.278 µg/mL; neutralization MPI [6]: 100; neutralization IC50 [7]: > 50 µg/mL; neutralization IC80 [7]: > 50 µg/mL; neutralization MPI [7]: 10
10-1074 (antibody)	> 50	> 50	> 50	> 50	> 50	> 50	> 50	> 50	0.005	0.017	0.089	0.297	> 50	> 50							
PG16 (antibody)	1.44	> 50	1.19	22.1	3.13	> 50	> 50	> 50	0.376	> 50	0.023	0.218	0.012	0.076							
